Measurements: paper PMC9563779 (2022)

Biological target: extracellular domain of p95HER2 peptide with a poly-histidine-tag in the C-terminus (human)
Test: SPR

B1: Oslo-2 mAb (antibody, V domains shown)
VH: EVQILETGGGLVKPGGSLRLSCATSGFNFNDYFMNWVRQAPGKGLEWIAQIRNKNYNYATYFAESLEGRFTISRDDSKSSVYLQVNSLRAEDTALYYCTELRYDYWGQGVMVTVSS
VL: DIVMTQSPFSLAVSEGEMVTINCKSSQSLLSSGNQKNNLAWYQQKPGQSPKLLIYYASTRQSGVPDRFIGSGSGTDFTLTISDVQAEDLADYYCLQHYSSPYTFGAGTKLELK
In the case of B1, the koff is reported as 0.00893 s⁻¹.
